T1: GIPR-ECD-laFc (an alpaca Fc-fused human GIPR extracellular region fragment) (human, UniProt P48546 22-138)
T1 construct: extracellular domain; not shown: alpaca Fc
T1 sequence (looked up): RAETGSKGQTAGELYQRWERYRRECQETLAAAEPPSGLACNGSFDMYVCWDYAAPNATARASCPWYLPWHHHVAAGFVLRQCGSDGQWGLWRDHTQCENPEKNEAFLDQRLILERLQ

T2: human GIPR expressed on HEK293T cells (human, UniProt P48546 22-466)
T2 sequence (looked up): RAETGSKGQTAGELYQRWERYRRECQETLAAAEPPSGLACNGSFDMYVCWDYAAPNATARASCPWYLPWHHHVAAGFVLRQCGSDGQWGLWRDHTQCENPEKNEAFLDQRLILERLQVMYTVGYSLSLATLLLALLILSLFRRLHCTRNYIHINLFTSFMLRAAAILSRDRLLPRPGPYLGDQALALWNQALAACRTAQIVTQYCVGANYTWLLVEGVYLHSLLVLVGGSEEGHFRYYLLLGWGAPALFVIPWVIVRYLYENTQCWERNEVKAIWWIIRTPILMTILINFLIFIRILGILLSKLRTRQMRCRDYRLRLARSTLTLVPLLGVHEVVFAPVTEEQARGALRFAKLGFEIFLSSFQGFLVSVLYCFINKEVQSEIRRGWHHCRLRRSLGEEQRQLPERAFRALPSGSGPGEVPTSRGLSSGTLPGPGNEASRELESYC

T3: GIPR-ECD-chis (a his tag-fused human GIPR extracellular region fragment) (human, UniProt P48546 22-138, limits assumed)
T3 construct: extracellular domain; not shown: his tag
T3 sequence (looked up): T1 sequence (looked up)

B1: iGI-27 (VHH)
VHH: QVQLVESGGALVQTGGSLRLFCAASGDTICITNMNWYRQAPGKGREFVAAITRSGRTLYADYVKGRFTISRDNARNTMSLQMNSMTSEDTAVYYCNADQNQTICAAEPSAWGRGTQVTVSS
notes: Tested as supernatant of a helper-phage-rescued clone (pComb3XSS), detected by anti-HA tag
B2: iGI-9 (VHH)
VHH: QVQLVESGGGLVQPGGSLRLSCETSKILFSSAYTMGWYRQAPGKQRELVATITTDYITNYVDSVKGRFTISRDNAKNTVYLQMNTLKLEDTAVYYCNARWGRDYWGQGTQVTVSS
notes: as for B1
B3: iGI-51 (VHH)
VHH: QVQLVESGGKLVQAGGSLRLDCVASGRTFSYYAIGWYRQAPGKEREFVAAIRASGGSTYYADSVKGRFTASRDNAKNTGYLQMNSLKPEDTAVYFCYAATIVPITPSTHGYWGQGTQVTVSS
notes: as for B1
B4: iGI-44 (VHH)
VHH: QVQLVESGGGLVQAGGSLKLSCAASGRTFSSKAMGWFRQAPGKEREFVAAINWSGDRTYHVNSIKGRFTISRDNAKNTVYLQMNSLKPEDTAVYYCTADRRDRATIPFQWHYWGQGTQVTVSS
notes: as for B1
B5: Maridebart (antibody, V domains shown)
VH: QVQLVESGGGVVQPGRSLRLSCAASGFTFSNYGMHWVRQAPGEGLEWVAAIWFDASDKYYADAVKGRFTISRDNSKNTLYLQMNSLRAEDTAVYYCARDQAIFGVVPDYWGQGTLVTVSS
VL: EIVMTQSPATLSVSPGERATLSCRASQSVSSNLAWYQQKPGQAPRLLIYGAATRATGIPARVSGSGSGTEFTLTISSLQSEDFAVYYCQQYNNWPLTFGGGTKVEIK
B6: iGI-72 (VHH)
VHH: QVQLVESGGGLVQPGGSLRLSCAASRYTLDYYAIGWFRQAPGKEREGVSCINSKDGSTYYADSVKGRFTISKDNAKNTVYLQMNSLKPEDTAVYYCAAGYDPWSGIPPVQAMCVMGYDYWGQGTQVTVSS
notes: as for B1
B7: iGI-1198 (VHH)
VHH: QVQLQESGGGLVQPGGSLRLSCVASGSGFSIVAMGWYRQTPGKQRELVAAITSGGNTNYADSVKGRFTISRDNAKNTIYLQMNSLKPEDTAVYYCNADPGVVAGPYAGMDFWGKGTQVTVSS
notes: as for B1

Tests used:
[1] = target: T1, GIPR-ECD-laFc (an alpaca Fc-fused human …); experiment: phage supernatant ELISA, coated antigen, anti-HA HRP, A450-A650
Experimental: (§1) The binding-positive phages obtained after the panning were used to infect blank E. coli cells, which were then plated. Subsequently, colonies were picked, inoculated separately into 2TY-AG (containing 10% glycerol), and left to stand overnight at room temperature. The next day, the cultures were separately inoculated into 200 μL of 2TY-AG, with an inoculation amount of 1%, and incubated at 37° C. at 250 rpm until OD600 reached about 0.5. Helper phage M13KO7 was added for infection (at a multiplicity of infection of 1:20). The cultures were left to stand at 37° C. for 15 min and then incubated at 220 rpm for 45 min. 800 μL of 2TY-AG was added to each well, and the plate was incubated overnight at 30° C. at 220 rpm and centrifuged the next day. The supernatants were collected for ELISA assays. Plates were coated overnight at 4° C. with GIPR-ECD-Chis, GIPR-ECD-laFc, C1, and C2, respectively, and the obtained supernatants were added. The plates were incubated at room temperature for 2 hours. After washing, the secondary antibody Goat anti-HA tag HRP (purchased from Abcam) was added, and the plates were incubated at room temperature for 2 hours. After washing, TMB chromogenic solution was added, and absorbance values at wavelengths of 450 nm and 650 nm were read. The final absorbance values were obtained by subtracting the absorbance values at the wavelength of 650 nm from the absorbance values at the wavelength of 450 nm.

[2] = target: T4, Control-1 (C1), a muFc-containing fusion protein; experiment: phage supernatant ELISA, coated control protein, anti-HA HRP, A450-A650
T4 construct: Negative panning and ELISA control
Experimental: as §1

[3] = target: T5, Control-2 (C2), a laFc-containing fusion protein; experiment: as above
T5 construct: Negative panning and ELISA control
Experimental: as §1

[4] = target: T2, human GIPR expressed on HEK293T cells; experiment: cell-based or functional assay
[5] = target: T3, GIPR-ECD-chis (a his tag-fused human …); experiment: BLI, antibody on AHC sensor, GIPR-ECD-chis in solution
[6] = target: T2, human GIPR expressed on HEK293T cells; experiment: cell binding on 293T-GIPR cells, anti-human SULFO-TAG secondary antibody, MSD read-out plotted as MFI
Experimental: The anti-human secondary antibody SULFO-TAG (MSD, Cat. No. R32AJ-1) was added, followed by incubation. The mean fluorescence intensity (MFI) was measured using MSD.

Binder | OD value [1] [OD] | OD value [2] [OD] | OD value [3] [OD] | EC50 of the inhibition rate (%) of GIP-induced cAMP expression in 293T-GIPR cells [4] [µg/mL] | Kd [5] [nM] | koff [5] [s⁻¹] | kon [5] [M⁻¹ s⁻¹] | EC50 [6] [nM]
B1 | 2.23 | 0.018 | 0.023 |  |  |  |  | 
B2 | 2.21 | 0.018 | 0.028 |  |  |  |  | 
B3 | 2.17 | 0.042 | 0.027 |  |  |  |  | 
B4 | 2.31 | 0.018 | 0.023 |  |  |  |  | 
B5 |  |  |  | 0.351 | 16.3 | 0.00222 | 136000 | 1.18
B6 | 2.2 | 0.019 | 0.077 |  |  |  |  | 
B7 | 1.95 |  | 0.027 |  |  |  |  | 

— patent publication US20260176344A1 (SUZHOU ALPHAMAB, published 2026)
